Patent US11230581B2, “Peptides and combination of peptides for use in immunotherapy against ovarian cancer and other cancers” (Immatics Biotechnologies GmbH, priority 2015, dated 2022)

molecular target: HLA-A*02:01 (Homo sapiens, UniProt P04439, D140Y/D185E/D98H/E176V/E277Q/G131W/G231S/I119V/I121R/I166T/I218V/L300P/L318F/N151K/N90K/P208A/P217A/Q86G/Q94H/R138H/R169H/T345S); test: MHC binding assay (UV-ligand exchange, β2m ELISA, peptide exchange yield); details: binding of HLA-class I restricted peptides to HLA-A*02:01, UV-ligand exchange
Source text: Candidate peptides for T cell based therapies according to the present invention were further tested for their MHC binding capacity (affinity). The individual peptide-MHC complexes were produced by UV-ligand exchange, where a UV-sensitive peptide is cleaved upon UV-irradiation, and exchanged with the peptide of interest as analyzed. Only peptide candidates that can effectively bind and stabilize the peptide-receptive MHC molecules prevent dissociation of the MHC complexes. To determine the yield of the exchange reaction, an ELISA was performed based on the detection of the light chain (β2m) of stabilized MHC complexes. The assay was performed as generally described in Rodenko et al. (Rodenko et al., 2006).
96 well MAXISorp plates (NUNC) were coated over night with 2 ug/ml streptavidin in PBS at room temperature, washed 4× and blocked for 1h at 37° C. in 2% BSA containing blocking buffer. […] Peptide-MHC monomers of the UV-exchange reaction were diluted 100 fold in blocking buffer. Samples were incubated for 1 h at 37° C., washed four times, incubated with 2 ug/ml HRP conjugated anti-β2m for 1h at 37° C., washed again and detected with TMB solution that is stopped with […]. Absorption was measured at 450 nm. Candidate peptides that show a high exchange yield (preferably higher than 50%, most preferred higher than 75%) are generally preferred for a generation and production of antibodies or fragments thereof, and/or T cell receptors or fragments thereof, as they show sufficient avidity to the MHC molecules and prevent dissociation of the MHC complexes.

Peptide exchange (MHC class I binding score, peptide exchange yield) | Substance
“++++” (≥75% = ++++) | 53 (KMIETDILQKV; listed as Homo sapiens) [compound 53]
“+++” (≥50 = +++) | 54 (SLLEQGKEPWMV; listed as Homo sapiens) [compound 54]
“++++” (≥75% = ++++) | 55 (SLLDLETLSL; listed as Homo sapiens) [compound 55]
“++++” (≥75% = ++++) | 56 (KLYEGIPVLL; listed as Homo sapiens) [compound 56]
“+++” (≥50 = +++) | 57 (TLAELQPPVQL; listed as Homo sapiens) [compound 57]
“+++” (≥50 = +++) | 59 (IMEDIILTL; listed as Homo sapiens) [compound 59]
“++++” (≥75% = ++++) | 60 (SLTIDGIYYV; listed as Homo sapiens) [compound 60]
“++++” (≥75% = ++++) | 61 (FLQGYQLHL; listed as Homo sapiens) [compound 61]
“++++” (≥75% = ++++) | 62 (VLLDVSAGQLLM; listed as Homo sapiens) [compound 62]
“++” (≥20% = ++) | 63 (YLLPSGGSVTL; listed as Homo sapiens) [compound 63]
“++” (≥20% = ++) | 64 (YAAPGGLIGV; listed as Homo sapiens) [compound 64]
“+++” (≥50 = +++) | 66 (FLDENIGGVAV; listed as Homo sapiens) [compound 66]
“+++” (≥50 = +++) | 67 (TLLAEALVTV; listed as Homo sapiens) [compound 67]
“++++” (≥75% = ++++) | 68 (SLMELPRGLFL; listed as Homo sapiens) [compound 68]
“+++” (≥50 = +++) | 69 (FQLDPSSGVLVTV; listed as Homo sapiens) [compound 69]
“+++” (≥50 = +++) | 70 (GLLDYPVGV; listed as Homo sapiens) [compound 70]
“+++” (≥50 = +++) | 71 (GILARIASV; listed as Homo sapiens) [compound 71]
“+++” (≥50 = +++) | 72 (SLLELDGINL; listed as Homo sapiens) [compound 72]
“+++” (≥50 = +++) | 73 (NIFDLQIYV; listed as Homo sapiens) [compound 73]
“+++” (≥50 = +++) | 74 (ALLDPEVLSIFV; listed as Homo sapiens) [compound 74]
“+++” (≥50 = +++) | 75 (GLLEVMVNL; listed as Homo sapiens) [compound 75]

Peptide exchange (MHC class I binding score, peptide exchange yield) | Substance
“+++” (≥50 = +++) | 76 (ILIDSIYKV; listed as Homo sapiens) [compound 76]
“++++” (≥75% = ++++) | 77 (ILVEADGAWVV; listed as Homo sapiens) [compound 77]
“+++” (≥50 = +++) | 78 (SLFSSLEPQIQPV; listed as Homo sapiens) [compound 78]
“+++” (≥50 = +++) | 79 (SLFIGEKAVLL; listed as Homo sapiens) [compound 79]
“++” (≥20% = ++) | 80 (FLYDNLVESL; listed as Homo sapiens) [compound 80]
“++” (≥20% = ++) | 81 (FLFSQLQYL; listed as Homo sapiens) [compound 81]
“+++” (≥50 = +++) | 82 (FLSSVTYNL; listed as Homo sapiens) [compound 82]
“+++” (≥50 = +++) | 83 (ILAPTVMMI; listed as Homo sapiens) [compound 83]
“++” (≥20% = ++) | 84 (VTFGEKLLGV; listed as Homo sapiens) [compound 84]
“+++” (≥50 = +++) | 85 (KMSELRVTL; listed as Homo sapiens) [compound 85]
“+++” (≥50 = +++) | 86 (NLIGKIENV; listed as Homo sapiens) [compound 86]
“++” (≥20% = ++) | 87 (ALPEAPAPLLPHIT; listed as Homo sapiens) [compound 87]
“+++” (≥50 = +++) | 88 (FLLVGDLMAV; listed as Homo sapiens) [compound 88]
“++++” (≥75% = ++++) | 89 (YILPTETIYV; listed as Homo sapiens) [compound 89]
“+++” (≥50 = +++) | 90 (TLLQIIETV; listed as Homo sapiens) [compound 90]
“++++” (≥75% = ++++) | 91 (IMQDFPAEIFL; listed as Homo sapiens) [compound 91]
“++” (≥20% = ++) | 92 (YLIPFTGIVGL; listed as Homo sapiens) [compound 92]
“++” (≥20% = ++) | 93 (LLQAIKLYL; listed as Homo sapiens) [compound 93]
“++” (≥20% = ++) | 94 (YLIDIKTIAI; listed as Homo sapiens) [compound 94]
“+++” (≥50 = +++) | 95 (SVIPQIQKV; listed as Homo sapiens) [compound 95]
“+++” (≥50 = +++) | 96 (YIFTDNPAAV; listed as Homo sapiens) [compound 96]

Peptide exchange (MHC class I binding score, peptide exchange yield) | Substance
“+++” (≥50 = +++) | 97 (SLINGSFLV; listed as Homo sapiens) [compound 97]
“+++” (≥50 = +++) | 98 (LIIDQADIYL; listed as Homo sapiens) [compound 98]
“++” (≥20% = ++) | 99 (ALVSKGLATV; listed as Homo sapiens) [compound 99]
“++++” (≥75% = ++++) | 100 (YLLSTNAQL; listed as Homo sapiens) [compound 100]
“+++” (≥50 = +++) | 101 (ILVGGGALATV; listed as Homo sapiens) [compound 101]
“+++” (≥50 = +++) | 102 (YLFESEGLVL; listed as Homo sapiens) [compound 102]
“+++” (≥50 = +++) | 103 (TLAEEVVAL; listed as Homo sapiens) [compound 103]
“++++” (≥75% = ++++) | 104 (STMEQNFLL; listed as Homo sapiens) [compound 104]
“+++” (≥50 = +++) | 106 (LLYDAVHIVSV; listed as Homo sapiens) [compound 106]
“+++” (≥50 = +++) | 107 (FLQPVDDTQHL; listed as Homo sapiens) [compound 107]
“++++” (≥75% = ++++) | 108 (ALFPGVALLLA; listed as Homo sapiens) [compound 108]
“++++” (≥75% = ++++) | 109 (IILSILEQA; listed as Homo sapiens) [compound 109]
“+++” (≥50 = +++) | 110 (FLSQVDFEL; listed as Homo sapiens) [compound 110]
“+++” (≥50 = +++) | 111 (YVWGFYPAEV; listed as Homo sapiens) [compound 111]
“+++” (≥50 = +++) | 113 (GLLPTPLFGV; listed as Homo sapiens) [compound 113]
“++” (≥20% = ++) | 114 (SLVGEPILQNV; listed as Homo sapiens) [compound 114]
“++” (≥20% = ++) | 115 (AIAGAGILYGV; listed as Homo sapiens) [compound 115]
“+” (≥10% = +) | 116 (YHIDEEVGF; listed as Homo sapiens) [compound 116]
“+++” (≥50 = +++) | 117 (ILPDGEDFLAV; listed as Homo sapiens) [compound 117]
“+++” (≥50 = +++) | 118 (KLIDNNINV; listed as Homo sapiens) [compound 118]
